Measurements published in US20240301052A1 (LANOVA MEDICINES DEVELOPMENT, published 2024).
Where two headings read alike, the source gives them in different places. Blank lines part the entries; values can stand above or below the binder they belong to.

Legend:
human SLC34A2 [1] = biological target: T1, human SLC34A2 (human, UniProt O95436 1-690); test: FACS, RMG-1 cells
T1 construct: whole, on cells; also called human solute carrier 34 A2; NaPi2b
T1 sequence (looked up): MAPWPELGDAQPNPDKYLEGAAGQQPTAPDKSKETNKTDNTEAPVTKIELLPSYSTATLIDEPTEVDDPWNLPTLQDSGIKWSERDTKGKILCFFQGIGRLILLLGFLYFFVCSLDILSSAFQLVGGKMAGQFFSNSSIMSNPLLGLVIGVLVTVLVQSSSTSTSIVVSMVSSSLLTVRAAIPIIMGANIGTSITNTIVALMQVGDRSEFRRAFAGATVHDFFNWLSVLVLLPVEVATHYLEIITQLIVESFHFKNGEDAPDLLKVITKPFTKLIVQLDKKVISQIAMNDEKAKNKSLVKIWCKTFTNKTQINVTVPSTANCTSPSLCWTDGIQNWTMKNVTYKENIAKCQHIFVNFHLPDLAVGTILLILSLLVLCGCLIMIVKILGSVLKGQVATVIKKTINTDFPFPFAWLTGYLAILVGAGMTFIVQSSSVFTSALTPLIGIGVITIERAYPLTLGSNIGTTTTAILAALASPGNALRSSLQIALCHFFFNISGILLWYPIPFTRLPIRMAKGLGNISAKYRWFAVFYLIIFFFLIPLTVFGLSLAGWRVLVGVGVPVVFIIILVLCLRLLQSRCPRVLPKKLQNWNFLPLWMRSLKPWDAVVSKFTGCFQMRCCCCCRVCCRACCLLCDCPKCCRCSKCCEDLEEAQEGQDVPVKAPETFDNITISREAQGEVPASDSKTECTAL
Protocol: (§1) In another testing, cell based binding of hu Abs on human SLC34A2 expressing cells were assessed using flow cytometry. Briefly, the HEK293/H_SLC34A2, OVCAR3 and RMG-1 cells were incubated with hu Abs. After incubation at 4° C. for 60 minutes, the cells were washed with FACS buffer twice, then stained with fluorescent conjugated secondary antibody at 4° C. for 30 minutes. After that the cells were washed twice and analyzed by flow cytometry.

human SLC34A2 [2] = biological target: T1, human SLC34A2; test: FACS, OVCAR3 cells
human SLC34A2 [3] = biological target: T1, human SLC34A2; test: FACS, OVCAR3 cells; remark: listed apart in the source
human SLC34A2 [4] = biological target: T1, human SLC34A2; test: FACS, OVCAR3 cells; remark: listed apart in the source
Protocol: as §1

human SLC34A2 [5] = biological target: T1, human SLC34A2; test: cell-based or functional assay
human SLC34A2 [6] = biological target: T1, human SLC34A2; test: FACS, HEK293/human SLC34A2 cells
Protocol: The PTM-derisked VH chains were first tested for their impact on target binding. Cell based binding of PTM Abs on human SLC34A2 expressing cells were assessed using flow cytometry. Briefly, the HEK293/H_SLC34A2 cells were incubated with PTM Abs (from 200 nM, 4 folds dilution, 8 points). After incubation at 4° C. for 60 minutes, the cells were washed with FACS buffer twice, then stained with fluorescent conjugated secondary antibody at 4° C. for 30 minutes. After that the cells were washed twice and analyzed by flow cytometry.

human SLC34A2 [7] = biological target: T1, human SLC34A2; test: FACS, HEK293/human SLC34A2 cells; remark: listed apart in the source
Protocol: as §1

Rhesus SLC34A2 [8] = biological target: T2, Rhesus SLC34A2 (Rhesus, UniProt F7HDA3 1-690); test: FACS, HEK293/Rhesus SLC34A2 cells
T2 construct: whole, on cells
T2 sequence: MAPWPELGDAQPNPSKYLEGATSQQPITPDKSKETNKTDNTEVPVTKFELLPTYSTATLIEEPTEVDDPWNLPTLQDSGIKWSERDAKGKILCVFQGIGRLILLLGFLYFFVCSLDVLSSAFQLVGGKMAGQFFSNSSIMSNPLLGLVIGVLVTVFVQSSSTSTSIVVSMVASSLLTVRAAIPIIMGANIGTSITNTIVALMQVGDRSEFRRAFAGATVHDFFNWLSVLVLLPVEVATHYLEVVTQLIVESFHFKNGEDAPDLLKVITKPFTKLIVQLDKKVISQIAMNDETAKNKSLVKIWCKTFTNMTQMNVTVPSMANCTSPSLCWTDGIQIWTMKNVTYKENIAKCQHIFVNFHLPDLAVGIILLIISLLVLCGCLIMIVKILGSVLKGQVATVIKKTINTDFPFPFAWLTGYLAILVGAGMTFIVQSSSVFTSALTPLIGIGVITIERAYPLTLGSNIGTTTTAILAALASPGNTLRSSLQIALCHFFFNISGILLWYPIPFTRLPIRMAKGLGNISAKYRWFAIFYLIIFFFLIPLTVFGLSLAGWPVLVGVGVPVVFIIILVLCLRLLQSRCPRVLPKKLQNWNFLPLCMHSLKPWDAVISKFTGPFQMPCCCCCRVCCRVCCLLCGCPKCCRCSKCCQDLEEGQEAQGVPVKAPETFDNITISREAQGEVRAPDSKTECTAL

Rhesus SLC34A2 [9] = biological target: T2, Rhesus SLC34A2; test: FACS, HEK293/Rhesus SLC34A2 cells; remark: listed apart in the source
human SLC34A2 [10] = biological target: T1, human SLC34A2; test: FACS, OVCAR3 cells; remark: listed apart in the source
human SLC34A2 [11] = biological target: T1, human SLC34A2; test: FACS, RMG-1 cells; remark: listed apart in the source
How it was run: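 Flow-cytometric binding of chimeric antibodies (8-point, 4-fold dilutions from 200 nM) to RMG-1 cells, 60 min at 4° C, followed by fluorescent secondary antibody for 30 min at 4° C.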

human SLC34A2 [12] = biological target: T1, human SLC34A2; test: FACS, OVCAR3 cells; remark: listed apart in the source
How it was run: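 Flow cytometry binding: cells (OVCAR3, or HEK293 transfected with human SLC34A2) exposed 60 min at 4° C to chimeric hIgG1, 8-point 4-fold series starting 200 nM. Washed, stained 30 min at 4° C with fluorescent anti-human secondary, then analysed.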

Rhesus SLC34A2 [13] = biological target: T2, Rhesus SLC34A2; test: FACS, HEK293/Rhesus SLC34A2 cells; remark: listed apart in the source
human SLC34A2 [14] = biological target: T1, human SLC34A2; test: cell-based or functional assay; remark: listed apart in the source
human SLC34A2 [15] = biological target: T1, human SLC34A2; test: cell-based or functional assay; remark: listed apart in the source
human SLC34A2 [16] = biological target: T1, human SLC34A2; test: FACS, HEK293/human SLC34A2 cells; remark: listed apart in the source
Protocol: Briefly, OVCAR3 cells or HEK293 cells expressing human SLC34A2 were incubated with chimeric antibodies (from 200 nM, 4 folds dilution, 8 points). After incubation at 4° C. for 60 minutes, the cells were washed with FACS buffer twice, then stained with fluorescent conjugated secondary antibody at 4° C. for 30 minutes. After that the cells were washed twice and analyzed by flow cytometry.

EC50 (human SLC34A2 [1]): 1.09 nM
Top (human SLC34A2 [1]): 9690 MFI
EC50 (human SLC34A2 [2]): 1 nM
Top (MFI) (human SLC34A2 [2]): 63500 MFI
EC50 (human SLC34A2 [3]): 2.29 nM
Top (MFI) (human SLC34A2 [3]): 32300 MFI
EC50 (human SLC34A2 [4]): 1.1 nM
Top (human SLC34A2 [4]): 19500 MFI
ADCC reporter EC50 (human SLC34A2 [5]): 3.31 nM
ADCC reporter Top (MFI) (human SLC34A2 [5]): 143000 MFI
EC50 (human SLC34A2 [6]): 0.68 nM
Top (MFI) (human SLC34A2 [6]): 28200 MFI
EC50 (human SLC34A2 [7]): 2.29 nM
Top (human SLC34A2 [7]): 32300 MFI
EC50 (Rhesus SLC34A2 [8]): 2.8 nM
Top (MFI) (Rhesus SLC34A2 [8]): 26400 MFI
EC50 (Rhesus SLC34A2 [9]): 0.8 nM
Top (MFI) (Rhesus SLC34A2 [9]): 7970 MFI
B1: 91C9F1.p1 hIgG1 (antibody, V domains shown)
VH: EVQLQQSGPELVKPGTSVKISCKTSGFFFTEYIIHWVKQSHGRSLEWIGGIIPNNDVTNYKQNFRGKAALTADKSSNTAYMELRSLTSEDSAVYYCARWRNAYYSAMDSWGQGTSVTVSS
VL: DIVVTQSHKFMSTSLGDRVSITCTASQDVGTAVAWYQQKPGHSPKLLIYWASTRHTGVPERFTGSGSGTDFTLTITNVQSEDLADYFCQQYRTSPLTFGVGTKLELK
notes: PTM-derisked chimeric, hIgG1; also called 91C9F1.pl hIgG1

EC50 (human SLC34A2 [1]): 12.5 nM
Top (human SLC34A2 [1]): 11700 MFI
EC50 (human SLC34A2 [2]): 7.5 nM
Top (MFI) (human SLC34A2 [2]): 75200 MFI
EC50 (human SLC34A2 [10]): 4.03 nM
Top (MFI) (human SLC34A2 [10]): 28200 MFI
EC50 (human SLC34A2 [4]): 4.03 nM
ADCC reporter EC50 (human SLC34A2 [5]): 2.83 nM
ADCC reporter Top (MFI) (human SLC34A2 [5]): 114000 MFI
EC50 (human SLC34A2 [6]): 1.48 nM
Top (MFI) (human SLC34A2 [6]): 30400 MFI
EC50 (human SLC34A2 [7]): 2.79 nM
Top (human SLC34A2 [7]): 35600 MFI
EC50 (Rhesus SLC34A2 [8]): 3.9 nM
Top (MFI) (Rhesus SLC34A2 [8]): 39400 MFI
EC50 (Rhesus SLC34A2 [9]): 0.7 nM
Top (MFI) (Rhesus SLC34A2 [9]): 13800 MFI
B2: 63A11D5B4 VH_P1/VL hIgG1 (antibody, V domains shown)
VH: QVQLQQPGAELVKPGASVKMSCRTSGYTFITYNMHWVKQTPGQGREWIGAIYPGSGDTSYNQKFKGKATLTADKSSSTAYMQLNSLTSEDSAVYYCSISTIITTGAVDYWGQGTSVTVAS
VL: DIVMTQSHKFMSTSVGDRVSITCKASQDVGTAVAWYQQKAGQSPKLLIYWTSTRHTGVPDRFTGSGSGTDFTLIIRSLQSEDLADYFCQQYSRIPLTFGSGTKLEIK
notes: PTM-derisked chimeric, hIgG1; that P1 is the SG version follows from the humanized .p1 chains; also called 63A11D5B4.p1 hIgG1

EC50 (human SLC34A2 [11]): 8.36 nM
Top (MFI) (human SLC34A2 [11]): 10200 MFI
EC50 (human SLC34A2 [12]): 7.86 nM
Top (MFI) (human SLC34A2 [12]): 28900 MFI
Top (MFI) (Rhesus SLC34A2 [13]): 5.4e+06 MFI
ADCC reporter EC50 (human SLC34A2 [14]): 3.6 nM
ADCC reporter Top (MFI) (human SLC34A2 [14]): 247000 MFI
EC50 (human SLC34A2 [16]): 2.11 nM
Top (MFI) (human SLC34A2 [16]): 47900 MFI
B3: xi71F7D4 hIgG1 (antibody, V domains shown)
VH: DVKLVESGGDLVKLGGSLKLSCAASGFTFSNYYMSWVRQTPEKRLELVAVINSNGGTTYYPDNMKGRFTISRDNAKNTLYLQTSSLKSEDTALYYCGRHEHYYGTNIAWFAYWGQGTLVTVSA
VL: DIVMTQSHKFMSTSVGDRVSITCKASQDVTTAVAWYQQKPGQSPKLLIYWASTRHTGVPDRFTGSGSGTDHTLTISSVQAEDLALYYCQQHYSTPVTFGGGTKLEIK
notes: chimeric, hIgG1
cytotoxicity EC50 (human SLC34A2 [15]): 0.83 nM
cytotoxicity Inhibition % (human SLC34A2 [15]): 99.4%
